± gives the uncertainty stated by the source.
B1: Membrane-associated guanylate kinase, WW and PDZ domain-containing protein 2, residues 601 to 682; numbered along this chain, Q86UL8 (parent)
chain: AELMTLTIVKGAQGFGFTIADSPTGQRVKQILDIQGCPGLCEGDLIVEINQQNVQNLSHTEVVDILKDCPIGSETSLIIHRG
B2: Pituitary-specific positive transcription factor 1, residues 130 to 198; numbered along this chain, P28069 (parent)
chain: RELEKFANEFKVRRIKLGYTQTNVGEALAAVHGSEFSQTTICRFENLQLSFKNACKLKAILSKWLEEAE

Variants of: B1
Test: abundance fitness (aPCA) (normalised: wild type 0, dead -1); higher = more abundant; growth selection in yeast, the domain comes from the species named
Details: Homo sapiens

Variant	abundance fitness
R81K	-0.21 ± 0.17
R81G	0.017 ± 0.067
R81I	-0.668 ± 0.25
R81N	-0.144 ± 0.37
G82S	-0.09 ± 0.076
G82D	0.009 ± 0.11
G82W	-0.184 ± 0.15
G82T	-0.023 ± 0.22
G82K	-0.16 ± 0.15
G82Q	0.092 ± 0.37
G82A	-0.051 ± 0.11
G82L	-0.148 ± 0.17
G82H	-0.303 ± 0.27
G82V	-0.188 ± 0.16
G82R	-0.016 ± 0.082
G82F	-0.25 ± 0.17
G82P	-0.058 ± 0.12
G82C	-0.117 ± 0.16
H80V	-0.231 ± 0.098
H80R	0.027 ± 0.063
H80A	-0.049 ± 0.077
H80D	0.043 ± 0.14
H80S	0.014 ± 0.075
H80L	-0.135 ± 0.079

Variant	abundance fitness
H80G	-0.006 ± 0.076
H80N	0.124 ± 0.19
H80E	0.019 ± 0.11
H80W	-0.079 ± 0.16
H80T	0.028 ± 0.079
H80P	-0.395 ± 0.14
H80M	-0.23 ± 0.27
H80C	-0.121 ± 0.11
H80F	-0.128 ± 0.19
I71F	-0.004 ± 0.21
I71V	0.006 ± 0.089
I71Q	-0.161 ± 0.096
I71K	-0.117 ± 0.24
I71R	-0.082 ± 0.076
I71L	-0.099 ± 0.1
I71M	-0.004 ± 0.099
I71E	-0.033 ± 0.11
I71H	-0.18 ± 0.23
I71A	-0.165 ± 0.1
I71T	-0.038 ± 0.15
I71G	0.038 ± 0.074
I71P	-0.052 ± 0.11
I71C	-0.101 ± 0.23
I71D	-0.101 ± 0.17

Variants of: B2
Test: as above
Details: Homo sapiens

Variant	abundance fitness
RELEKFANEFKVRRIKLGYTQTNVGEALAAVHGSEFSQTTICRFENLQLSFKNACKLKAILSDWLEEAE [K63D]	0.112 ± 0.077
RELEKFANEFKVRRIKLGYTQTNVGEALAAVHGSEFSQTTICRFENLQLSFKNACKLKAILSKWLMEAE [E66M]	-0.332 ± 0.096
RELEKFANEFKVRRIKLGYTQTNVGEALAAVHGSEFSQTTICRFENLQSSFKNACKLKAILSKWLEEAE [L49S]	-0.568 ± 0.079
RELEKFANEFKVRRIKLGYTQTNVGEALAAVHGSMFSQTTICRFENLQLSFKNACKLKAILSKWLEEAE [E35M]	-0.162 ± 0.071
RELEKFANEFKVRRIKLGYTQTNVGEALAAVHGSQFSQTTICRFENLQLSFKNACKLKAILSKWLEEAE [E35Q]	-0.059 ± 0.15
RELEKFANEFKVRRIKLGYTQTAVGEALAAVHGSEFSQTTICRFENLQLSFKNACKLKAILSKWLEEAE [N23A]	0.267 ± 0.074
RELEKFANEFKVRRIKLGYTDTNVGEALAAVHGSEFSQTTICRFENLQLSFKNACKLKAILSKWLEEAE [Q21D]	-0.674 ± 0.21
RELEKFANEFKVRRIKLGYTQTNVGEALAAVHGSEFSQTTICRFENLQLSMKNACKLKAILSKWLEEAE [F51M]	-0.156 ± 0.13
RELEKFANEFKVRRIKLGYTQTNVGEALAAVHGSEFSQTTICRFENLQLSFKNACKMKAILSKWLEEAE [L57M]	0.285 ± 0.11
RCLEKFANEFKVRRIKLGYTQTNVGEALAAVHGSEFSQTTICRFENLQLSFKNACKLKAILSKWLEEAE [E2C]	-0.984 ± 0.32
RLLEKFANEFKVRRIKLGYTQTNVGEALAAVHGSEFSQTTICRFENLQLSFKNACKLKAILSKWLEEAE [E2L]	-0.672 ± 0.14
RELEKFANEFKVRRIKLGYTQTNVGEALAAVHGSEFSQTTICRFENLQLSFKNACGLKAILSKWLEEAE [K56G]	-0.341 ± 0.054
RELEKFANEFKVRRIKLGYTQTNVGEALAAVHGSEFSQTTICRFENLQLSFKNACSLKAILSKWLEEAE [K56S]	-0.23 ± 0.049
RELEKFANEFKVRRIKLGYTQTNVGEALAAVHGSEFSQTTICRFENMQLSFKNACKLKAILSKWLEEAE [L47M]	0.263 ± 0.082
RELEKFANEFKVRRIKLGYTQTNVGEDLAAVHGSEFSQTTICRFENLQLSFKNACKLKAILSKWLEEAE [A27D]	-0.221 ± 0.17
RELEKFANEFKVRRIKLGYTQTNVGEALAAMHGSEFSQTTICRFENLQLSFKNACKLKAILSKWLEEAE [V31M]	-0.135 ± 0.09
RELEKFANEFKVRRIKLPYTQTNVGEALAAVHGSEFSQTTICRFENLQLSFKNACKLKAILSKWLEEAE [G18P]	-0.608 ± 0.28
RELEKFANEFKVRRIKLGYTQTNVGEALAAVHGSEFSQTTICRFENLKLSFKNACKLKAILSKWLEEAE [Q48K]	-0.476 ± 0.18
RELEKFANEFKVRRIKLGYTQTNVGEALAAVHGSEFSQTTICRFENLQLSFKEACKLKAILSKWLEEAE [N53E]	0.355 ± 0.077
RELEKFANEFKVFRIKLGYTQTNVGEALAAVHGSEFSQTTICRFENLQLSFKNACKLKAILSKWLEEAE [R13F]	-0.872 ± 0.4
